According to patent US20160159928A1 (published 2016):

T1: CXCR1 (UniProt P25024 1-350, limits assumed)
T1 construct: whole, on cells; also called CXCR1 receptor; CXCR1-U2OS
T1 sequence (looked up): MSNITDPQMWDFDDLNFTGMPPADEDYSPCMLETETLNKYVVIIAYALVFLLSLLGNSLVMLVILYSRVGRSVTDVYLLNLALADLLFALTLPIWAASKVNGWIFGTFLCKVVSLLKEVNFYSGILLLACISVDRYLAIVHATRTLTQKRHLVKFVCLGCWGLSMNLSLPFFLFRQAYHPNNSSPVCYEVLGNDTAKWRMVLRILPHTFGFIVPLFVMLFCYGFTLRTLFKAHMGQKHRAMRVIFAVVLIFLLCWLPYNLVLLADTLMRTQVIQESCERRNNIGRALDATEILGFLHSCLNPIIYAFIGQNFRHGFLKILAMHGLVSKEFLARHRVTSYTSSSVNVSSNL


Tests used:
CXCR1 [1] = target: T1, CXCR1; assay: flow cytometry; fluorescence on CXCR1-U2OS over parental U2OS cells
Procedure: (§1) Briefly, a cell line expressing functionally validated CXCR1 derived from U2OS cells was obtained from DiscoveRx and cultured per manufacturer's instructions (Cat#93-0226C3, DiscoveRx Corporation, Freemont, Calif.). The parental cell line U2OS was obtained from ATCC and cultured under the same conditions as the CXCR1 cells. Cell culture supernatants were then tested for binding to cells by flow cytometry. The adherent U2OS or CXCR1-U2OS cells were dissociated with Accutase (Innovative Cell Technologies, Inc., San Diego, Calif.), neutralized with an equal volume of media containing 10% serum, centrifuged at 1000 g, and resuspended in PBS with 2% BSA. Next, cells were dispensed into microtiter plates to achieve between 30,000 to 300,000 cells per well, centrifuged again, and resuspended in cell culture supernatant containing expressed IgG, or a dilution of IgG-containing cell culture supernatant. A fluorescent-conjugated anti-Human Fc antibody was used to detect binding of the expressed antibody to cells.

CXCR1 [2] = target: T1, CXCR1; assay: as above; remark: listed apart in the source
Procedure: as §1

CXCR1 [3] = target: T1, CXCR1; assay: flow cytometry, IgG 10 nM, 2% BSA in PBS plus 2 ug/ml heparin sulfate
Procedure: Transfections and ELISA were carried out as described above, and flow cytometry was used to evaluate CXCR1 binding specificity as previously described, with the modification that cells were resuspended in 2% BSA in PBS plus 2 ug/ml Heparin sulfate, and IgGs were normalized to 10 nM during incubation on cells.

Binder | CXCR1 specificity (CXCR1/parental ratio) (CXCR1 [3]) | other results
VH4-4+CDR3-IL8 IgG (antibody, also called VH4-4 BLVCDR3IL8) VH: QVQLQESGPGLVKPSETLSLTCTVSGGSISSYYWSWIRQPAGKGLEWIGRIYTSGSTNYNPSLKSRVTMSVDTSKNQFSLKLSSVTAADTAVYYCTSVHQETKKYQSPRSAKELRCQCIKTYSKPFHPKFIKELRVIESGPHCANTEIIVKLSDGRELCLDPKENWVQRVVEKFLKRAENSGSGSYTYNYEWHVDVWGQGLLVTVSSAS light: not shown |  | Ratio of CXCR1/Parental (CXCR1 [1]): 3.1
VH1-69+CDR3-IL8 IgG (antibody, also called VH1-69 BLVCDR3IL8) VH: QVQLVQSGAEVKKPGSSVKVSCKASGGTFSSYAISWVRQAPGQGLEWMGGIIPIFGTANYAQKFQGRVTITADKSTSTAYMELSSLRSEDTAVYYCTSVHQETKKYQSPRSAKELRCQCIKTYSKPFHPKFIKELRVIESGPHCANTEIIVKLSDGRELCLDPKENWVQRVVEKFLKRAENSGSGSYTYNYEWHVDVWGQGLLVTVSSAS light: not shown |  | Ratio of CXCR1/Parental (CXCR1 [1]): 4
VH4-34+CDR3-IL8_CDR1 Cow IgG (BLV1H12 light chain) (antibody, also called VH4-34 + CDR3-IL8 + Cow CDR1) VH: QVQLQQWGAGLLKPSETLSLTCTASGFSLSDKAVGWIRQPPGKGLEWIGEINHSGSTNYNPSLKSRVTISVDTSKNQFSLKLSSVTAADTAVYYCTSVHQETKKYQSPRSAKELRCQCIKTYSKPFHPKFIKELRVIESGPHCANTEIIVKLSDGRELCLDPKENWVQRVVEKFLKRAENSGSGSYTYNYEWHVDVWGQGLLVTVSSAS light: not shown |  | FACS CXCR1/Parental Ratio (CXCR1 [2]): 2.1
VH4-34+CDR3-IL8_CDR1 Cow with light chain V1-51 CDR2 DNN to GDT (antibody) VH: QVQLQQWGAGLLKPSETLSLTCTASGFSLSDKAVGWIRQPPGKGLEWIGEINHSGSTNYNPSLKSRVTISVDTSKNQFSLKLSSVTAADTAVYYCTSVHQETKKYQSPRSAKELRCQCIKTYSKPFHPKFIKELRVIESGPHCANTEIIVKLSDGRELCLDPKENWVQRVVEKFLKRAENSGSGSYTYNYEWHVDVWGQGLLVTVSSAS light: QSVLTQPPSVSAAPGQKVTISCSGSSSNIGNNYVSWYQQLPGTAPKLLIYGDTKRPSGIPDRFSGSKSGTSATLGITGLQTGDEADYYCASAEDSSSNAVFGSGTTLTVLGQPKAAPSVTLFPPSSEELQANKATLVCLISDFYPGAVTVAWKADSSPVKAGVETTTPSKQSNNKYAASSYLSLTPEQWKSHRSYSCQVTHEGSTVEKTVAPTECS | 5.6 | 
VH4-34+CDR3-IL8_CDR1 Cow_CDR2 Cow with light chain V1-51 S2A, T5N, P8S, A12G, A13S, P14L (antibody, also called BID 36; VH4-34 MutB IL-8 CDR1cow CDR2cow) VH: QVQLQQWGAGLLKPSETLSLTCTASGFSLSDKAVGWIRQPPGKGLEWLGSIDTGGNTGYNPSLKSRVTISVDTSKNQFSLKLSSVTAADTAVYYCTSVHQETKKYQSPRSAKELRCQCIKTYSKPFHPKFIKELRVIESGPHCANTEIIVKLSDGRELCLDPKENWVQRVVEKFLKRAENSGSGSYTYNYEWHVDVWGQGLLVTVSSAS light: QAVLNQPSSVSGSLGQKVTISCSGSSSNIGNNYVSWYQQLPGTAPKLLIYDNNKRPSGIPDRFSGSKSGTSATLGITGLQTGDEADYYCASAEDSSSNAVFGSGTTLTVLGQPKAAPSVTLFPPSSEELQANKATLVCLISDFYPGAVTVAWKADSSPVKAGVETTTPSKQSNNKYAASSYLSLTPEQWKSHRSYSCQVTHEGSTVEKTVAPTECS | 12.2 | 
VH4-34+CDR3-IL8_CDR1 Cow_CDR2 Cow with light chain V1-51 CDR1 I29V, N32G (antibody) VH: QVQLQQWGAGLLKPSETLSLTCTASGFSLSDKAVGWIRQPPGKGLEWLGSIDTGGNTGYNPSLKSRVTISVDTSKNQFSLKLSSVTAADTAVYYCTSVHQETKKYQSPRSAKELRCQCIKTYSKPFHPKFIKELRVIESGPHCANTEIIVKLSDGRELCLDPKENWVQRVVEKFLKRAENSGSGSYTYNYEWHVDVWGQGLLVTVSSAS light: QSVLTQPPSVSAAPGQKVTISCSGSSSNVGNGYVSWYQQLPGTAPKLLIYDNNKRPSGIPDRFSGSKSGTSATLGITGLQTGDEADYYCASAEDSSSNAVFGSGTTLTVLGQPKAAPSVTLFPPSSEELQANKATLVCLISDFYPGAVTVAWKADSSPVKAGVETTTPSKQSNNKYAASSYLSLTPEQWKSHRSYSCQVTHEGSTVEKTVAPTECS | 11.8 | 
VH4-34+CDR3-IL8_CDR1 Cow with light chain V1-51 S2A, T5N, P8S, A12G, A13S, P14L (antibody, also called BID 34) VH: QVQLQQWGAGLLKPSETLSLTCTASGFSLSDKAVGWIRQPPGKGLEWIGEINHSGSTNYNPSLKSRVTISVDTSKNQFSLKLSSVTAADTAVYYCTSVHQETKKYQSPRSAKELRCQCIKTYSKPFHPKFIKELRVIESGPHCANTEIIVKLSDGRELCLDPKENWVQRVVEKFLKRAENSGSGSYTYNYEWHVDVWGQGLLVTVSSAS light: QAVLNQPSSVSGSLGQKVTISCSGSSSNIGNNYVSWYQQLPGTAPKLLIYDNNKRPSGIPDRFSGSKSGTSATLGITGLQTGDEADYYCASAEDSSSNAVFGSGTTLTVLGQPKAAPSVTLFPPSSEELQANKATLVCLISDFYPGAVTVAWKADSSPVKAGVETTTPSKQSNNKYAASSYLSLTPEQWKSHRSYSCQVTHEGSTVEKTVAPTECS | 4.7 | 
VH4-34+CDR3-IL8_CDR1 Cow_CDR2 Cow with light chain V1-51 CDR2 DNNKRP to GDTSRA (antibody) VH: QVQLQQWGAGLLKPSETLSLTCTASGFSLSDKAVGWIRQPPGKGLEWLGSIDTGGNTGYNPSLKSRVTISVDTSKNQFSLKLSSVTAADTAVYYCTSVHQETKKYQSPRSAKELRCQCIKTYSKPFHPKFIKELRVIESGPHCANTEIIVKLSDGRELCLDPKENWVQRVVEKFLKRAENSGSGSYTYNYEWHVDVWGQGLLVTVSSAS light: QSVLTQPPSVSAAPGQKVTISCSGSSSNIGNNYVSWYQQLPGTAPKLLIYGDTSRASGIPDRFSGSKSGTSATLGITGLQTGDEADYYCASAEDSSSNAVFGSGTTLTVLGQPKAAPSVTLFPPSSEELQANKATLVCLISDFYPGAVTVAWKADSSPVKAGVETTTPSKQSNNKYAASSYLSLTPEQWKSHRSYSCQVTHEGSTVEKTVAPTECS | 6.9 | 
VH4-34+CDR3-IL8_CDR1 Cow with light chain V1-51 S2A, T5N, P8S, A12G, A13S, P14L & DNN to GDT (antibody) VH: QVQLQQWGAGLLKPSETLSLTCTASGFSLSDKAVGWIRQPPGKGLEWIGEINHSGSTNYNPSLKSRVTISVDTSKNQFSLKLSSVTAADTAVYYCTSVHQETKKYQSPRSAKELRCQCIKTYSKPFHPKFIKELRVIESGPHCANTEIIVKLSDGRELCLDPKENWVQRVVEKFLKRAENSGSGSYTYNYEWHVDVWGQGLLVTVSSAS light: QAVLNQPSSVSGSLGQKVTISCSGSSSNIGNNYVSWYQQLPGTAPKLLIYGDTKRPSGIPDRFSGSKSGTSATLGITGLQTGDEADYYCASAEDSSSNAVFGSGTTLTVLGQPKAAPSVTLFPPSSEELQANKATLVCLISDFYPGAVTVAWKADSSPVKAGVETTTPSKQSNNKYAASSYLSLTPEQWKSHRSYSCQVTHEGSTVEKTVAPTECS | 6.8 | 
VH4-34+CDR3-IL8_CDR1 Cow with light chain V1-51 CDR2 DNNKRP to GDTSRA (antibody) VH: QVQLQQWGAGLLKPSETLSLTCTASGFSLSDKAVGWIRQPPGKGLEWIGEINHSGSTNYNPSLKSRVTISVDTSKNQFSLKLSSVTAADTAVYYCTSVHQETKKYQSPRSAKELRCQCIKTYSKPFHPKFIKELRVIESGPHCANTEIIVKLSDGRELCLDPKENWVQRVVEKFLKRAENSGSGSYTYNYEWHVDVWGQGLLVTVSSAS light: QSVLTQPPSVSAAPGQKVTISCSGSSSNIGNNYVSWYQQLPGTAPKLLIYGDTSRASGIPDRFSGSKSGTSATLGITGLQTGDEADYYCASAEDSSSNAVFGSGTTLTVLGQPKAAPSVTLFPPSSEELQANKATLVCLISDFYPGAVTVAWKADSSPVKAGVETTTPSKQSNNKYAASSYLSLTPEQWKSHRSYSCQVTHEGSTVEKTVAPTECS | 8 | 
VH4-34+CDR3-IL8_CDR1 G31D, Y32K IgG (BLV1H12 light chain) (antibody, also called VH4-34 + CDR3-IL8 + E31D, Y32K) VH: QVQLQQWGAGLLKPSETLSLTCAVYGGSFSDKYWSWIRQPPGKGLEWIGEINHSGSTNYNPSLKSRVTISVDTSKNQFSLKLSSVTAADTAVYYCTSVHQETKKYQSPRSAKELRCQCIKTYSKPFHPKFIKELRVIESGPHCANTEIIVKLSDGRELCLDPKENWVQRVVEKFLKRAENSGSGSYTYNYEWHVDVWGQGLLVTVSSAS light: not shown |  | FACS CXCR1/Parental Ratio (CXCR1 [2]): 8.1
VH4-34+CDR3-IL8_CDR1 Cow_CDR2 Cow with light chain V1-51 CDR2 DNN to GDT (antibody) VH: QVQLQQWGAGLLKPSETLSLTCTASGFSLSDKAVGWIRQPPGKGLEWLGSIDTGGNTGYNPSLKSRVTISVDTSKNQFSLKLSSVTAADTAVYYCTSVHQETKKYQSPRSAKELRCQCIKTYSKPFHPKFIKELRVIESGPHCANTEIIVKLSDGRELCLDPKENWVQRVVEKFLKRAENSGSGSYTYNYEWHVDVWGQGLLVTVSSAS light: QSVLTQPPSVSAAPGQKVTISCSGSSSNIGNNYVSWYQQLPGTAPKLLIYGDTKRPSGIPDRFSGSKSGTSATLGITGLQTGDEADYYCASAEDSSSNAVFGSGTTLTVLGQPKAAPSVTLFPPSSEELQANKATLVCLISDFYPGAVTVAWKADSSPVKAGVETTTPSKQSNNKYAASSYLSLTPEQWKSHRSYSCQVTHEGSTVEKTVAPTECS | 16.7 | 
VH4-34+CDR3-IL8_CDR1 Cow with light chain V1-51 CDR1 I29V, N32G (antibody) VH: QVQLQQWGAGLLKPSETLSLTCTASGFSLSDKAVGWIRQPPGKGLEWIGEINHSGSTNYNPSLKSRVTISVDTSKNQFSLKLSSVTAADTAVYYCTSVHQETKKYQSPRSAKELRCQCIKTYSKPFHPKFIKELRVIESGPHCANTEIIVKLSDGRELCLDPKENWVQRVVEKFLKRAENSGSGSYTYNYEWHVDVWGQGLLVTVSSAS light: QSVLTQPPSVSAAPGQKVTISCSGSSSNVGNGYVSWYQQLPGTAPKLLIYDNNKRPSGIPDRFSGSKSGTSATLGITGLQTGDEADYYCASAEDSSSNAVFGSGTTLTVLGQPKAAPSVTLFPPSSEELQANKATLVCLISDFYPGAVTVAWKADSSPVKAGVETTTPSKQSNNKYAASSYLSLTPEQWKSHRSYSCQVTHEGSTVEKTVAPTECS | 8.9 | 
VH3-23+CDR3-IL8 IgG (antibody, also called VH3-23 BLVCDR3IL8) VH: EVQLLESGGGLVQPGGSLRLSCAASGFTFSSYAMSWVRQAPGKGLEWVSAISGSGGSTYYADSVKGRFTISRDNSKNTLYLQMNSLRAEDTAVYYCTSVHQETKKYQSPRSAKELRCQCIKTYSKPFHPKFIKELRVIESGPHCANTEIIVKLSDGRELCLDPKENWVQRVVEKFLKRAENSGSGSYTYNYEWHVDVWGQGLLVTVSSAS light: not shown |  | Ratio of CXCR1/Parental (CXCR1 [1]): 2.7
